How the values were obtained:
Test in all cases: fluorescence titration; 2-300 mM NaCl; site size 32 ± 2 nt; EMSA: 20 mM Tris-HCl pH 8.0, 100 mM NaCl, 1 mM EDTA, 25 C, 2% agarose in TAE; fluorescence titration: 20 mM Tris-HCl pH 8.0, 1 mM EDTA, 2/100/300 mM NaCl, 25 C
Settings in all cases: protein: recombinant; tags: none (stop codon in reverse primer); chain copies: 4; label: none stated
PprSSB = molecular target: T1, PprSSB (Photobacterium profundum (LMG 19446), UniProt Q6LM83 5-187)
T1 sequence: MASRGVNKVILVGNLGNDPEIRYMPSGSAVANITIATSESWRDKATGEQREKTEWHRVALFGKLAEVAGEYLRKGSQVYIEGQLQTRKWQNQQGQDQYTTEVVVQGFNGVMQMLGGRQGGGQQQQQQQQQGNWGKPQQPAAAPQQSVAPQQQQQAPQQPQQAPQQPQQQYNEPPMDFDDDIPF

PtoSSB = molecular target: T2, PtoSSB (Psychroflexus torquis ATCC 700755 (LMG …, UniProt K4IS14 1-151))
T2 sequence: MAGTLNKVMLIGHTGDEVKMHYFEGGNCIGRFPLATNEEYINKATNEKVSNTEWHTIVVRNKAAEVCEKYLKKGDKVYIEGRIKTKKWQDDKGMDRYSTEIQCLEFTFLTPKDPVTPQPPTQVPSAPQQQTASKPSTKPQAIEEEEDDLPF

PcrSSB = molecular target: T3, PcrSSB (Psychrobacter cryohalolentis K5 (DSM …, UniProt Q1Q9B8 1-1+=G+2-219, internal_change))
T3 sequence: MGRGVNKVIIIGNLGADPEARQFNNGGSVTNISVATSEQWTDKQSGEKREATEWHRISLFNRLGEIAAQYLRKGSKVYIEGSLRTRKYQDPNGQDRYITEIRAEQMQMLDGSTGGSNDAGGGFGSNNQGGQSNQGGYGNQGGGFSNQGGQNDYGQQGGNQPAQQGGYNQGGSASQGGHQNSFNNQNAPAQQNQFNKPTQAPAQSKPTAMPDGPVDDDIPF

B1: (dT)76 (ssDNA)
DNA: TTTTTTTTTTTTTTTTTTTTTTTTTTTTTTTTTTTTTTTTTTTTTTTTTTTTTTTTTTTTTTTTTTTTTTTTTTTT
binding signal (PprSSB): 90 ± 3 % Trp fluorescence quench at saturation
binding signal (PtoSSB): 93 ± 3 % Trp fluorescence quench at saturation
binding signal (PcrSSB): 93 ± 3 % Trp fluorescence quench at saturation

— publication PMC3991886, “Characterization of single-stranded DNA-binding proteins from the psychrophilic bacteria Desulfotalea psychrophila, Flavobacterium psychrophilum, Psychrobacter arcticus, Psychrobacter cryohalolentis, Psychromonas ingrahamii, Psychroflexus torquis, and Photobacterium profundum” (BMC Microbiology, 2014)
